We go through 6 substances from PMC4197836.

pKd: −log10 of the molar value. Like-named read-outs stand apart in the source and are kept apart here.

Holding throughout (assay): AlphaScreen or HTRF
Assay [1] addresses His6-tagged MLV IN (Moloney Murine Leukemia Virus).
For assay [2] the target is unchanged. This is another data set of the same source.
In assay [3] the target is GST-tagged mBRD4ET (aa 601-685) (mouse) (UniProt Q9ESU6).

As usually defined, the pKd is the negative decadic logarithm of the Kd, by convention in mol/L. Read a low pKd as a large Kd.

His6-tagged MLV IN (Moloney Murine Leukemia Virus), sequence (P03355 1331-1738 limits assumed): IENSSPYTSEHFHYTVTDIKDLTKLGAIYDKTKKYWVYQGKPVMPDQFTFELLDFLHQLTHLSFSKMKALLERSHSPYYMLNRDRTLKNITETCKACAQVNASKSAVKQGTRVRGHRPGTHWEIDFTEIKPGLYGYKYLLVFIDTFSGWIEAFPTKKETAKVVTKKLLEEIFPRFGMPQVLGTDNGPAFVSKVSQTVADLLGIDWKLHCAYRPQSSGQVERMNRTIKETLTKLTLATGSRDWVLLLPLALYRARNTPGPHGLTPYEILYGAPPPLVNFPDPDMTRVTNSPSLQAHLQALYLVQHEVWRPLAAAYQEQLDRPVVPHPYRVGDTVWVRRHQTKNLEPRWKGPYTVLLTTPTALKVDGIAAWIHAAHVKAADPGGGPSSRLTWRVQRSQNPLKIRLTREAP

In turn, “MBP-fused BRD3 ET domain (domain or fragment)” showed a pKd in assay [1] of 9.01.

“MBP-fused BRD2 ET domain (domain or fragment)” showed a pKd in assay [1] of 9.22. In the case of “GST-tagged mBRD4ET (aa 601-685) (from UniProt Q9ESU6 601-685) (domain or fragment)”, the pKd in assay [1] was 8.07; in assay [2], 7.23. The substance His6-tagged MLV IN (enzyme) gave a pKd in assay [3] of 7.25.

With “GST-tagged mBRD4_(ETSEED) (aa 601-721) (from UniProt Q9ESU6 601-721) (domain or fragment)”, the values for the pKd in assay [1] and in assay [2] were 7.23 and 8.07, respectively. Substance “MBP-fused BRD4 ET domain (domain or fragment)” showed a pKd in assay [1] of 9.39.
